This is an account of results in US20260146099A1 (SELVAX, published 2026).

For assay [1], the target named is Recombinant canine CD40 extracellular domain with human IgG1 Fc domain tag (canine; human) (UniProt Q7YRL5). Briefly: SPR (Biacore T200), single-cycle kinetics, canine CD40-Fc immobilised, antibody 2-32 nM as analyte, bivalent analyte model, first site, average n=5. (SPR reads the build-up and loss of mass on a sensor chip optically.)
In assay [2] the target is T1, Recombinant canine CD40 extracellular domain with human IgG1 Fc domain tag (canine; human, UniProt Q7YRL5 21-194).
T1 construct: extracellular domain; Amine-coupled to a CM5 chip; also called caCD40-Fc; canine CD40-Fc; not shown: human IgG1 Fc domain tag
T1 sequence (looked up): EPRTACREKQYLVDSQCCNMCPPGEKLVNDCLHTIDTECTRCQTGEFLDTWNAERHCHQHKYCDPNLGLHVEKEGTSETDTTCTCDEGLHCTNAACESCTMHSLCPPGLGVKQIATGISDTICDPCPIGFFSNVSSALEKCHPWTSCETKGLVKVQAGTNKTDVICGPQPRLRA
In words: SPR (Biacore T200), single-cycle kinetics, canine CD40-Fc immobilised, antibody 2-32 nM as analyte, bivalent analyte model, first site, average n=6. As to the method: (§1) Recombinant canine CD40 extracellular domain with human IgG1 Fc domain tag (canine CD40-Fc) was immobilised to the surface of a Series S Sensor Chip CM5 using an Amine Coupling Kit. The reference surface for analysis was prepared by immobilising human IgG1 isotype control antibody to the Series S Sensor Chip CM5 using the same method.
(§2) Kinetics/affinity analysis was carried out using the Biacore method for single-cycle kinetics. Running buffer was HBS-EP+ buffer, pH 7.4. Injection parameters were sample contact time: 180 seconds, dissociation: 600 seconds, flow rate: 30 μl/min. The concentrations of chimeric anti-CD40 antibodies used for kinetics analysis were 2 nM, 4 nM, 8 nM, 16 nM and 32 nM. Regeneration was with 50 mM NaOH for 30 seconds at 30 μl/min. Experimental data was fitted to a bivalent analyte binding model.

For assay [3], the target named is T2, Recombinant canine CD40/TNFRSF5 protein (his tag) (canine, UniProt Q7YRL5 21-194).
T2 construct: Sino Biological 70105-D08H, expressed in a human cell line from Met1-Ala194; signal peptide Met1-Pro20 predicted cleaved; also called antigen; StP1a (canine CD40)
T2 sequence: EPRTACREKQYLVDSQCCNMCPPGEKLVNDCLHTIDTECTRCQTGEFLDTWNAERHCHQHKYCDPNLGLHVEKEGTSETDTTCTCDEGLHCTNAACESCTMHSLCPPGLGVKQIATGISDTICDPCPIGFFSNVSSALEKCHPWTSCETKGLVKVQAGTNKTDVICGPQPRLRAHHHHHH
Briefly: ELISA, absorbance on StP1a over absorbance on Irrelevant His Tag (RgN3a). In general terms: ELISA stands for enzyme-linked immunosorbent assay.

In assay [4] the target is T1, Recombinant canine CD40 extracellular …. In words: SPR (Biacore T200), single-cycle kinetics, canine CD40-Fc immobilised, antibody 2-32 nM as analyte, bivalent analyte model, first site, average n=5. As to the method:
as §1
Kinetics/affinity analysis was carried out using the Biacore method for single-cycle kinetics. Running buffer was HBS-EP+ buffer, pH 7.4. Injection parameters were sample contact time: 180 seconds, dissociation: 600 seconds, flow rate: 30 μl/min. The concentrations of purified anti-dog CD40 antibodies used for kinetics analysis were 2 nM, 4 nM, 8 nM, 16 nM and 32 nM. Regeneration was with 50 mM NaOH for 30 seconds at 30 μl/min. Experimental data was fitted to a bivalent analyte binding model.

In assay [5] the target is T2, Recombinant canine CD40/TNFRSF5 protein …. Briefly: ELISA, absorbance on StP1a over absorbance on Irrelevant His Tag (RgN3a). The source holds these as a separate data set.
The target of assay [6] is T1, Recombinant canine CD40 extracellular …. In words: SPR (Biacore T200), single-cycle kinetics, canine CD40-Fc immobilised, antibody 2-32 nM as analyte, bivalent analyte model, first site, average n=5. The protocol: as §1, §2
The source holds these as a separate data set.

Read-outs that look alike come from different tables or passages of the source.

For orientation: koff means the first-order rate constant of dissociation. One may read the kon as a measure of how fast the partners come together. In the case of anti-human CD40 antibody 21.4.1, in assay [1], the Kd is 257 nM, the dissociation rate constant (koff) was 0.0143 s⁻¹ and the kon was determined as 58000 M⁻¹ s⁻¹.

B1: StP1.RD1.G9.H5 (antibody, V domains shown)
VH: QVQLQQSGPELVQPGASVKISCRASGYSFTSYYIHWVKQRPGQGLEWIGWIFPGSGNTKYNEKFRGKATLTADTSSSTAYTQVSSLTSEDSAVYFCARKSPYGNYAMDYWGQGTSVTVSS
VL: DILLTQSPAILSVSPGERVSFSCRASQSIGTSIHWYQQRTNGSPRLLIKSASESISGIPSRFSGSGSGTDFTLSINSVESEDIADYYCQQSNSWPYTFGGGTKLEIKRADAAPTVS
notes: also called purified monoclonal antibody from hybridoma cell-line StP1.RD1.G9.H5
Turning to B1, in assay [2], the Kd is 2.85 nM, the koff stood at 0.00106 s⁻¹ and the kon turned out to be 372000 M⁻¹ s⁻¹. Further, the “positive:negative ratio” value in assay [3] is 12.4. Besides, in assay [4], the Kd was determined as 5.24 nM, the off-rate (koff) was determined as 0.00157 s⁻¹ and the kon was 312000 M⁻¹ s⁻¹.

B2: StP1.RE2.D7b.B5 (antibody, V domains shown)
VH: QVQLQQSGPELVKPGASVKISCKASGYSFTSYYIHWVKQSPGQGLEWIGWIFPGSGNTKYNEKFKGKATLTADTSSSTAYMQLSSLTSEDSAVYFCARRGTTRDALDYWGQGTSVTVSS
VL: DILLTQSPAILSVSPGERVSFSCRASQSIGTSIHWFQQRTNGSPRVLIKYASQSISGIPSRFSGSGSGTDFTLSINSVESEDIADYYCQQSYTWPFTFGSGTKLAIKR
As for B2, the “positive:negative ratio” value in assay [5] is 10.8.

B3: SVX-2001A (antibody)
heavy: QVQLQQSGPELVQPGASVKISCRASGYSFTSYYIHWVKQRPGQGLEWIGWIFPGSGNTKYNEKFRGKATLTADTSSSTAYTQVSSLTSEDSAVYFCARKSPYGNYAMDYWGQGTSVTVSSASTTAPSVFPLAPSCGSTSGSTVALACLVSGYFPEPVTVSWNSGSLTSGVHTFPSVLQSSGLHSLSSMVTVPSSRWPSETFTCNVVHPASNTKVDKPVFNECRCTDTPPCPVPEPLGGPSVLIFPPKPKDILRITRTPEVTCVVLDLGREDPEVQISWFVDGKEVHTAKTQSREQQFNGTYRVVSVLPIEHQDWLTGKEFKCRVNHIDLPSPIERTISKARGRAHKPSVYVLPPSPKELSSSDTVSITCLIKDFYPPDIDVEWQSNGQQEPERKHRMTPPQLDEDGSYFLYSKLSVDKSRWQQGDPFTCAVMHETLQNHYTDLSLSHSPGK
light: DILLTQSPAILSVSPGERVSFSCRASQSIGTSIHWYQQRTNGSPRLLIKSASESISGIPSRFSGSGSGTDFTLSINSVESEDIADYYCQQSNSWPYTFGGGTKLEIKRNDAQPAVYLFQPSPDQLHTGSASVVCLLNSFYPKDINVKWKVDGVIQDTGIQESVTEQDKDSTYSLSSTLTMSSTEYLSHELYSCEITHKSLPSTLIKSFQRSECQRVD
notes: also called chimeric dog IgGA, k antibody derived from StP1.RD1.G9.H5
Consider B3, for which, in assay [6], the Kd is 1.85 nM, the koff is 0.000659 s⁻¹ and the kon was 370000 M⁻¹ s⁻¹.

B4: SVX-2001B (antibody)
heavy: QVQLQQSGPELVQPGASVKISCRASGYSFTSYYIHWVKQRPGQGLEWIGWIFPGSGNTKYNEKFRGKATLTADTSSSTAYTQVSSLTSEDSAVYFCARKSPYGNYAMDYWGQGTSVTVSSASTTAPSVFPLAPSCGSTSGSTVALACLVSGYFPEPVTVSWNSGSLTSGVHTFPSVLQSSGLYSLSSMVTVPSSRWPSETFTCNVAHPASKTKVDKPVPKRENGRVPRPPDCPKCPAPEMLGGPSVFIFPPKPKDTLLIARTPEVTCVVVDLDPEDPEVQISWFVDGKQMQTAKTQPREEQFNGTYRVVSVLPIGHQDWLKGKQFTCKVNNKALPSPIERTISKARGQAHQPSVYVLPPSREELSKNTVSLTCLIKDFFPPDIDVEWQSNGQQEPESKYRTTPPQLDEDGSYFLYSKLSVDKSRWQRGDTFICAVMHEALHNHYTQESLSHSPGK
light: DILLTQSPAILSVSPGERVSFSCRASQSIGTSIHWYQQRTNGSPRLLIKSASESISGIPSRFSGSGSGTDFTLSINSVESEDIADYYCQQSNSWPYTFGGGTKLEIKRNDAQPAVYLFQPSPDQLHTGSASVVCLLNSFYPKDINVKWKVDGVIQDTGIQESVTEQDKDSTYSLSSTLTMSSTEYLSHELYSCEITHKSLPSTLIKSFQRSECQRVD
notes: also called chimeric dog IgGB, k antibody derived from StP1.RD1.G9.H5
Turning to B4, in assay [6], the Kd was determined as 3.36 nM, the koff was determined as 0.00155 s⁻¹ and the kon came out at 461000 M⁻¹ s⁻¹.

B5: SVX-2001C (antibody)
heavy: QVQLQQSGPELVQPGASVKISCRASGYSFTSYYIHWVKQRPGQGLEWIGWIFPGSGNTKYNEKFRGKATLTADTSSSTAYTQVSSLTSEDSAVYFCARKSPYGNYAMDYWGQGTSVTVSSASTTAPSVFPLAPSCGSQSGSTVALACLVSGYIPEPVTVSWNSVSLTSGVHTFPSVLQSSGLYSLSSMVTVPSSRWPSETFTCNVAHPATNTKVDKPVAKECECKCNCNNCPCPGCGLLGGPSVFIFPPKPKDILVTARTPTVTCVVVDLDPENPEVQISWFVDSKQVQTANTQPREEQSNGTYRVVSVLPIGHQDWLSGKQFKCKVNNKALPSPIEEIISKTPGQAHQPNVYVLPPSRDEMSKNTVTLTCLVKDFFPPEIDVEWQSNGQQEPESKYRMTPPQLDEDGSYFLYSKLSVDKSRWQRGDTFICAVMHEALHNHYTQISLSHSPGK
light: DILLTQSPAILSVSPGERVSFSCRASQSIGTSIHWYQQRTNGSPRLLIKSASESISGIPSRFSGSGSGTDFTLSINSVESEDIADYYCQQSNSWPYTFGGGTKLEIKRNDAQPAVYLFQPSPDQLHTGSASVVCLLNSFYPKDINVKWKVDGVIQDTGIQESVTEQDKDSTYSLSSTLTMSSTEYLSHELYSCEITHKSLPSTLIKSFQRSECQRVD
notes: also called chimeric dog IgGC, k antibody derived from StP1.RD1.G9.H5
Turning to B5, in assay [6], the Kd was 3.36 nM, the koff turned out to be 0.00172 s⁻¹ and the association rate constant (kon) is 519000 M⁻¹ s⁻¹.

B6: SVX-2001D (antibody)
heavy: QVQLQQSGPELVQPGASVKISCRASGYSFTSYYIHWVKQRPGQGLEWIGWIFPGSGNTKYNEKFRGKATLTADTSSSTAYTQVSSLTSEDSAVYFCARKSPYGNYAMDYWGQGTSVTVSSASTTAPSVFPLAPSCGSTSGSTVALACLVSGYFPEPVTVSWNSGSLTSGVHTFPSVLQSSGLYSLSSTVTVPSSRWPSETFTCNVVHPASNTKVDKPVPKESTCKCISPCPVPESLGGPSVFIFPPKPKDILRITRTPEITCVVLDLGREDPEVQISWFVDGKEVHTAKTQPREQQFNSTYRVVSVLPIEHQDWLTGKEFKCRVNHIGLPSPIERTISKARGQAHQPSVYVLPPSPKELSSSDTVTLTCLIKDFFPPEIDVEWQSNGQPEPESKYHTTAPQLDEDGSYFLYSKLSVDKSRWQQGDTFTCAVMHEALQNHYTDLSLSHSPGK
light: DILLTQSPAILSVSPGERVSFSCRASQSIGTSIHWYQQRTNGSPRLLIKSASESISGIPSRFSGSGSGTDFTLSINSVESEDIADYYCQQSNSWPYTFGGGTKLEIKRNDAQPAVYLFQPSPDQLHTGSASVVCLLNSFYPKDINVKWKVDGVIQDTGIQESVTEQDKDSTYSLSSTLTMSSTEYLSHELYSCEITHKSLPSTLIKSFQRSECQRVD
notes: also called chimeric dog IgGD, k antibody derived from StP1.RD1.G9.H5
Consider B6, for which, in assay [6], the Kd was determined as 2.6 nM, the off-rate (koff) was found to be 0.000932 s⁻¹ and the kon turned out to be 359000 M⁻¹ s⁻¹.
